This note sets out measurements from paper PMC9490041 (2022).

Like-named read-outs stand apart in the source and are kept apart here. Ends that are not written are not given here. * marks the point of attachment. FITC = O=C1OC2(c3ccc(O)cc3Oc3cc(O)ccc32)c2ccc(NC(=S)*)cc21; Dansyl = CN(C)c1cccc2c(S(=O)(=O)*)cccc12

Experiment [1] deals with PSG (PSD-95), PDZ3-SH3-GK supramodule, wild type.
The target is the same in experiment [2]. As to the kind of experiment: FP.

One may read the Kd as the free concentration of one partner at which half of the binding sites on the other are occupied at equilibrium, for simple one-to-one binding.

B1: 15 AA INSY2, dansylated (DNS-KTESKKHGRWKLWFL) (peptide)
chain: Dansyl-KTESKKHGRWKLWFL
In the case of B1, the affinity in experiment [1], expressed as Kd, was 161000 nM.

B2: 15 AA FRPD4, dansylated (DNS-RDGCHRLPKIKETTV) (peptide)
chain: Dansyl-RDGCHRLPKIKETTV
Regarding B2, in experiment [1], the Kd is 760 nM.

B3: 15 AA CRIPT, dansylated (DNS-GKKVLDTKNYKQTSV) (peptide)
peptide: Dansyl-GKKVLDTKNYKQTSV
As for B3, in experiment [1], binding was characterised by a dissociation constant (Kd) of 490 nM.

B4: FITC-14 AA ADGRB1 (peptide)
peptide: {FITC}-PLVGQDIIDLQTEV
B4 displayed an equilibrium dissociation constant (Kd) in experiment [2] of 60000 nM.

B5: 15 AA SynGap (DNS-AQRGSFPPWVQQTRV) (peptide)
chain: Dansyl-AQRGSFPPWVQQTRV
B5 returned a Kd in experiment [1] of 550 nM.
